# Data as given in US20260258084A1, “New Peptides as Selective IL-23 Receptor Antagonists” (Sanofi, priority 2022, published 2026).
# Starred links: 1 amine or outer side, 2 acyl side, 3 side chain; linkers in the order of their positions; H or OH if unused. Positions of bridges follow the written chain, without caps; N, C: chain ends. Non-standard residues stand in square brackets, D forms with d. No end group written: not given here. Yde = (2S)-2-amino-3-[4-[2-(dimethylamino)ethoxy]phenyl]propanoic acid, CN(C)CCOc1ccc(C[C@H](N[*:1])C(=O)[*:2])cc1; NdmK = (2S)-6-amino-2-(dimethylamino)hexanoic acid, CN(C)[C@@H](CCCCN[*:3])C(=O)[*:2]; Trp(7-Me) = Cc1cccc2c(C[C@H](N)C(=O)O)c[nH]c12; Tyr(Me) = COc1ccc(C[C@H](N[*:1])C(=O)[*:2])cc1; αMeLys(Me2) = CN(C)CCCC[C@](C)(N)C(=O)O; 2Nal = N[C@@H](Cc1ccc2ccccc2c1)C(=O)O; εLys = N[C@@H](CCCCN[*:1])C(=O)[*:2]; NMe5Ava = CN(CCCCC(=O)[*:2])[*:1]; 3Pal = N[C@@H](Cc1cccnc1)C(=O)O; αMeL = CC(C)C[C@](C)(N)C(=O)O; Thp = NC1(C(=O)O)CCOCC1; Aib = CC(C)(N)C(=O)O; Ava = NCCCCC(=O)O; Sar = CNCC(=O)O
# T1: IL-23 receptor on the surface of HEK-Blue IL-23 cells (UniProt Q5VWK5 24-629, limits assumed)
# T1 sequence (looked up): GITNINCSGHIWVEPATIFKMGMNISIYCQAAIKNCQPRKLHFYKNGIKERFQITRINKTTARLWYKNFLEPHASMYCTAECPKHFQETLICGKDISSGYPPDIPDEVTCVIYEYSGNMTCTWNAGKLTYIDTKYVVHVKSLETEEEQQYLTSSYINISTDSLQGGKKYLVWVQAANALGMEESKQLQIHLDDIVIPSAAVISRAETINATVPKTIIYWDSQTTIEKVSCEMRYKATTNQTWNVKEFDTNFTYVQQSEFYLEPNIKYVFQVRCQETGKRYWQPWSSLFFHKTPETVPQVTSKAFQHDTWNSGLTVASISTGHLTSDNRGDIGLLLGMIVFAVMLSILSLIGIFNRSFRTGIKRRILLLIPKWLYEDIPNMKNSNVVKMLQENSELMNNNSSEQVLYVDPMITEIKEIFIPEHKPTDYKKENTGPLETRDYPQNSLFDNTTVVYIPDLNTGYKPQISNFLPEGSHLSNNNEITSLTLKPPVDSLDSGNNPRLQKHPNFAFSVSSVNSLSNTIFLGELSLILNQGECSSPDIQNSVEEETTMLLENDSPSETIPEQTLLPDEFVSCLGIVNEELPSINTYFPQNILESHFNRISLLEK
# T2: recombinant human IL-23R-Fc chimera (human, UniProt Q5VWK5 24-353)
# T2 construct: used at 0.1 µg/ml in the ELISA; not shown: Fc part of the chimera; detected with goat anti-hu-IgG1-HRP a
# T2 sequence (looked up): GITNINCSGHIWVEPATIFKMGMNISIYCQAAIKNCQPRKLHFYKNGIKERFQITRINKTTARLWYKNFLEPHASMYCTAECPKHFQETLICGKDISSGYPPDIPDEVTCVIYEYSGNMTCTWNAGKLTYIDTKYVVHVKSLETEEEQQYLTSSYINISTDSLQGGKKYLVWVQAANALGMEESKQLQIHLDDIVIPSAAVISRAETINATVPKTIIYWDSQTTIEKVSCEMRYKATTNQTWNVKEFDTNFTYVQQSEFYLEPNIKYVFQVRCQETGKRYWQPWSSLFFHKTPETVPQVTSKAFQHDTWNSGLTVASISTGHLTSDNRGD
# B1: Compound of SEQ ID NO: 7 (peptide)
# peptide: K(Ac)CNTWQC[Tyr(Me)][2Nal][Aib]DNN-NH2
# modifications: lactam (positions not given here); disulfide 2-7; not fully specified (bridges); printed as K[Ac](§1)-C(@2)-N-T-W-Q-C(@2)-Yme-Nal-Aib-D(§1)-N—N—NH2; also: K1 acetylated, whether acetyl is on alpha-N or epsilon-N (lactam via the other amine) not settled
# notes: §1 lactam bridge; @2 disulfide bridge
# B2: Compound of SEQ ID NO: 65 (peptide)
# peptide: [Ava]CNT[Trp(7-Me)]K(Ac)C[Yde][2Nal][αMeL]EN[3Pal][Sar]-NH2
# modifications: lactam N-11; disulfide 2-7
# SMILES: CC(=O)NCCCC[C@@H]1NC(=O)[C@H](Cc2c[nH]c3c(C)cccc23)NC(=O)[C@H]([C@@H](C)O)NC(=O)[C@H](CC(N)=O)NC(=O)[C@@H]2CSSC[C@H](NC1=O)C(=O)N[C@@H](Cc1ccc(OCCN(C)C)cc1)C(=O)N[C@@H](Cc1ccc3ccccc3c1)C(=O)N[C@@](C)(CC(C)C)C(=O)N[C@H](C(=O)N[C@@H](CC(N)=O)C(=O)N[C@@H](Cc1cccnc1)C(=O)N(C)CC(N)=O)CCC(=O)NCCCCC(=O)N2
# B3: Compound of SEQ ID NO: 28 (peptide)
# peptide: [Ava]C[εLys](Ac)WQC[Yde][2Nal][αMeL]ENN-NH2
# modifications: lactam N-10; disulfide 2-6; also: Cys2 carboxyl bonded to Lys3 epsilon-NH2 (isopeptide), Lys3 alpha-N acetylated
# B4: Compound of SEQ ID NO: 35 (peptide)
# peptide: [Ava]CNT[Trp(7-Me)]K(Ac)C[Yde][2Nal][Thp]EN[3Pal][Sar]-NH2
# modifications: lactam N-11; disulfide 2-7
# SMILES: CC(=O)NCCCC[C@@H]1NC(=O)[C@H](Cc2c[nH]c3c(C)cccc23)NC(=O)[C@H]([C@@H](C)O)NC(=O)[C@H](CC(N)=O)NC(=O)[C@@H]2CSSC[C@H](NC1=O)C(=O)N[C@@H](Cc1ccc(OCCN(C)C)cc1)C(=O)N[C@@H](Cc1ccc3ccccc3c1)C(=O)NC1(CCOCC1)C(=O)N[C@H](C(=O)N[C@@H](CC(N)=O)C(=O)N[C@@H](Cc1cccnc1)C(=O)N(C)CC(N)=O)CCC(=O)NCCCCC(=O)N2
# Target: T1, IL-23 receptor on the surface of …
# Test: cell-based or functional assay
row,pSTAT3 (nM),Binder
1,25,B1
2,0.23,B2
3,4.11,B3
4,4.4,[NMe5Ava]C[NdmK][Trp(7-Me)]K(Ac)C[Yde][2Nal][αMeLys(Me2)]EN[3Pal][Sar]-NH2 (lactam N-10; disulfide 2-6) [Compound of SEQ ID NO: 61]
5,0.34,B4

# Target: T2, recombinant human IL-23R-Fc chimera
# Test: competition ELISA: IL-23R-Fc binding to coated human IL23
# Description: Antagonism of compounds for human interleukin-23 receptor antagonists, was determined by an ELISA assay.
# A 384-well plate was coated with 50 μl/well of human IL23 at a final concentration of […] and incubated overnight at 4° C. The wells were washed 3 times with 80 μl wash buffer and blocked with 80 μl blocking buffer for 60 minutes at room temperature and washed again. 20 μl of serially diluted test peptides was added to each well and subsequently 20 μl of recombinant human IL-23R-Fc chimera at final concentration of 0.1 μg/ml. The plate was incubated for 60 minutes at room temperature. After the wells were washed, bound IL23R-Fc was detected with goat anti-hu-IgG1-HRP antibody. Signals were visualized with QuantaBlu Fluorogenic Peroxidase Substrate.
row,IC50 [nM],Binder
1,0.6,B1
2,163,XXNTWQXXXXENN (not fully specified; Apt(§1)-Pen(@2)-N-T-W-Q-Pen(@2)-Yae-Nal-Thp-E(§1)-N-N-NH2) [Pen peptide compound of SEQ ID NO: 163]
3,0.37,B2
4,0.39,B3
5,0.36,[NMe5Ava]C[NdmK][Trp(7-Me)]K(Ac)C[Yde][2Nal][αMeLys(Me2)]EN[3Pal][Sar]-NH2 (lactam N-10; disulfide 2-6) [Compound of SEQ ID NO: 61]
6,0.34,B4
